According to patent US20030032072A1, “Method for the assessment of allergenicity” (Novozymes A/S, priority 1999, published 2003):

B1: lipase: triacylglycerol acylhydrolase (lipase) E.C. 3.1.1.3 from Humicola lanuginosa (protein, UniProt O59952 23-291, looked up)
Lipase: EVSQDLFNQFNLFAQYSAAAYCGKNNDAPAGTNITCTGNACPEVEKADATFLYSFEDSGVGDVTGFLALDNTNKLIVLSFRGSRSIENWIGNLNFDLKEINDICSGCRGHDGFTSSWRSVADTLRQKVEDAVREHPDYRVVFTGHSLGGALATVAGADLRGNGYDIDVFSYGAPRVGNRAFAEFLTVQTGGTLYRITHTNDIVPRLPPREFGYSHSSPEYWIKSGTLVPVTRNDIVKIEGIDATGGNNQPNIPDIPAHLWYFGLIGTCL

Experiments:
[1] = test system: Human lung epithelial cells (BEAS-2B, ATCC # CRL-9609); test: Bioassay: extracellular cytokine expression of epithelial cells, assessed by ELISA; assay type: cell-based
Method: Human lung epithelial cells (BEAS-2B, ATCC # CRL-9609) were inoculated in a culture flask (NUNC), precoated with 2% (vol/vol) Ultroser G in water, at 1500 to 3000 cells per cm^2, and were grown at 37° C. in LHC-9 medium containing 2% (vol/vol) Ultroser G and 5% CO2.
The cells were subcultured before reaching confluence. The medium was removed, and fresh 0.5% polyvinylpyrrolidone (PVP) in trypin (0.25% (wt/vol))-EDTA (0.03% (wt/vol)) solution was added until cells detached (usually after 5-10 minutes at room temperature). LHC-9 medium was added, and cells were collected by centrifugation (300× g for 15 minutes), and resuspended in LHC-9 medium containing 2% (vol/vol) Ultroser G. Finally, cells were dispensed into precoated flasks (NUNC) at a density of 1500 to 3000 cells per cm^2.
When enough cells were available to perform the planned number of assays, cells were trypinated, and were transferred to a 24-well culture plate (NUNC) (1×10^5 cells per well). Incubation was for 24 hours at 37° C. in LHC-9 medium containing 2% (vol/vol) Ultroser G and 5% CO2. […]
The extracellular expression of selected cytokines was assessed by ELISA (R&D Systems), as a function of incubation time and protein concentration. […] A calibration curve was included each time, to include quantification of the detected cytokine levels, as well as to assess assay reproducibility.

Brown Norway rats = test: Intratracheal immunization of Brown Norway rats, IgE ELISA; assay type: in vivo, rat; settings: rats immunized intratracheally, IgE detected by ELISA, Example 5
Method: Twenty intratracheal immunizations were performed weekly with 100 microliters 0.9% (wt/vol) NaCl (control group), or 100 microliters of the protein dilution mentioned before. Each group contained 10 rats. Blood samples (2 ml) were collected from the eye one week after every second immunization. Serum was obtained by blood clothing, and centrifugation.
The IgE ELISA was performed by using the following: Buffers and Solutions:
Mouse anti-Rat IgE was diluted 200×in PBS (5 micrograms/ml). 100 microliters were added to each well. The plates were coated overnight at 4° C.
Unspecific adsorption was blocked by incubating each well for 1 hour at room temperature with 200 microliters blocking buffer. The plates were washed 3×with 300 microliters washing buffer.
Unknown rat sera and a known rat IgE solution were diluted in dilution buffer: Typically 10×, 20×and 40×for the unknown sera, and ½ dilutions for the standard IgE starting from 1 microgram/ml. 100 microliters were added to each well. […]
The reaction was stopped by adding 100 microliters H2SO4. The plates were read at 492 nm with 620 nm as reference.
Rats were immunized intratracheally with unmodified and modified protease, and the protease specific IgE levels were detected by ELISA. The IgE levels detected throughout the study were integrated, and compared relative to the levels observed in rats immunized with unmodified enzyme.

| Molecule | effect on cytokine production ([1]; PMSF (10 mM) and its hydrolysis products, diluted about 1000× before being applied on the cells) | level of all cytokines (normalized cytokine levels, FIG. 5) ([1]; epithelial cell assay, Example 5) | IgE level in rats (Brown Norway rats) |
| --- | --- | --- | --- |
| O=S(=O)(F)Cc1ccccc1 [PMSF, reference compound] | no detectable effect |  |  |
| B1 |  | high level | significantly lower IgE level |
